Reference: patent US20220144916A1 (University of Texas, published 2022)

Experiments:
[1] = molecular target: T1, human FcγRIIIA, FLAG-tagged (human, UniProt P08637 17-208); test: flow cytometry, yeast display of human IgG1 Fc, FcgR3A labeled with PE
T1 construct: also called FcgRIIIa; FcγIIIA

[2] = molecular target: T2, HCMV viral Fcγ receptor gp34 (residues 24-182), soluble, strep and FLAG tags (human cytomegalovirus AD169, UniProt P16809 24-182); test: flow cytometry, yeast display of human IgG1 Fc, Gp34 plus anti-FLAG PE
T2 construct: range 24-182
T2 sequence: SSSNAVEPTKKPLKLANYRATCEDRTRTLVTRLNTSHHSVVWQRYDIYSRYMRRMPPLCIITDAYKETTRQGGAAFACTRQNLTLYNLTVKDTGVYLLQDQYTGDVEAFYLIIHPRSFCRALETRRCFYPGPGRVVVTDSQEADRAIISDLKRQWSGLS

human FcRn, FLAG-tagged = human FcRn, FLAG-tagged (human, UniProt P55899 24-297; P61769 21-119); test: flow cytometry, yeast display of human IgG1 Fc, FcRn at low pH, PE detection
human FcRn, FLAG-tagged, sequence (P55899 24-297 limits assumed, chain 1 of 2): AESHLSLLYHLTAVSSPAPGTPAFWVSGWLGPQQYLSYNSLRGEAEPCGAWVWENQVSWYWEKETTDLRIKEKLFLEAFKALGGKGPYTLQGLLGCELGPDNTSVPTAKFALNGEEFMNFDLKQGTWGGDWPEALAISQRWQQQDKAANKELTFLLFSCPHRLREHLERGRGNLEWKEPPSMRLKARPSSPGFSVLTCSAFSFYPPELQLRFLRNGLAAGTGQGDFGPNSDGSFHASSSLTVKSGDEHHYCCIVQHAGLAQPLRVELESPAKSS
human FcRn, FLAG-tagged, sequence (P61769 21-119 limits assumed, chain 2 of 2): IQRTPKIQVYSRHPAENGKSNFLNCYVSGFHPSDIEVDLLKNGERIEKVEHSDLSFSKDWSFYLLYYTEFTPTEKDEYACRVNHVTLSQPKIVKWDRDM

T1 sequence (P08637 17-208 limits assumed): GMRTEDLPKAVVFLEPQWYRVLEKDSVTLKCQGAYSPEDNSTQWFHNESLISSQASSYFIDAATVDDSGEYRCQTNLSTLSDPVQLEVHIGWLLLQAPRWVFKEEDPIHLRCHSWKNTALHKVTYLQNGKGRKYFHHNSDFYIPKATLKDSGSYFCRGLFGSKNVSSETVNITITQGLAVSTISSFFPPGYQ

Binder	number printed in the receptor-PE gate (share of yeast cells; unit not given) [1]	binding result [2]	number printed in the receptor-PE gate (share of yeast cells; unit not given) (human FcRn, FLAG-tagged)
3S-12 (other, member of group m65; also called gp34 escape variant 3S-12 of human IgG1 Fc, S337F, E345K, T350I) human IgG1 Fc displayed on yeast as an Aga-2 fusion protein: CDKTHTCPPCPAPELLGGPSVFLFPPKPKDTLMISRTPEVTCVVVDVSHEDPEVKFNWYVDGVEVHNAKTKPREEQYNSTYRVVSVLTVLHQDWLNGKEYKCKVSNKALPAPIEKTIFKAKGQPRKPQVYILPPSRDELTKNQVSLTCLVKGFYPSDIAVEWESNGQPENNYKTTPPVLDSDGSFFLYSKLTVDKSRWQQGNVFSCSVMHEALHNHYTQKSLSLSPGK	39.9	no binding	–
4-7 (other, also called gp34 escape variant 4-7 of human IgG1 Fc, H268L, E294K, Q311L, K334E) human IgG1 Fc displayed on yeast as an Aga-2 fusion protein: CDKTHTCPPCPAPELLGGPSVFLFPPKPKDTLMISRTPEVTCVVVDVSLEDPEVKFNWYVDGVEVHNAKTKPREKQYNSTYRVVSVLTVLHLDWLNGKEYKCKVSNKALPAPIEETISKAKGQPREPQVYTLPPSRDELTKNQVSLTCLVKGFYPSDIAVEWESNGQPENNYKTTPPVLDSDGSFFLYSKLTVDKSRWQQGNVFSCSVMHEALHNHYTQKSLSLSPGK	54.2	no binding	34.3
3S-13 (other, member of group m65; also called gp34 escape variant 3S-13 of human IgG1 Fc, K334E, K338I) human IgG1 Fc displayed on yeast as an Aga-2 fusion protein: CDKTHTCPPCPAPELLGGPSVFLFPPKPKDTLMISRTPEVTCVVVDVSHEDPEVKFNWYVDGVEVHNAKTKPREEQYNSTYRVVSVLTVLHQDWLNGKEYKCKVSNKALPAPIEETISIAKGQPREPQVYTLPP	43.4	no binding	–
